From US12338277

Columns and labels:
Assay in all cases: cell-based or functional assay
[1] = molecular target: HIV-1 Env of pseudovirus 249M B10 (HIV-1)
[2] = molecular target: HIV-1 Env of pseudovirus C4118.c09 (HIV-1)
[3] = molecular target: HIV-1 Env of pseudovirus CAAN5342.A2 (HIV-1)
[4] = molecular target: HIV-1 Env of pseudovirus Ce704809221_1B3 (HIV-1)
[5] = molecular target: HIV-1 Env of pseudovirus Du422.1 (HIV-1)
[6] = molecular target: HIV-1 Env of pseudovirus HIV-0013095-2.11 (HIV-1)
[7] = molecular target: HIV-1 Env of pseudovirus HIV-001428-2.42 (HIV-1)
[8] = molecular target: HIV-1 Env of pseudovirus P1981_C5_3 (HIV-1)
[9] = molecular target: HIV-1 Env of pseudovirus Q769.d22 (HIV-1)
[10] = molecular target: HIV-1 Env of pseudovirus R1166.c01 (HIV-1)
[11] = molecular target: HIV-1 Env of pseudovirus T250-4 (HIV-1)
[12] = molecular target: HIV-1 Env of pseudovirus ZM214M.PL15 (HIV-1)
[13] = molecular target: HIV-1 envelope of pseudovirus 0815.v3.c3 (HIV-1)
[14] = molecular target: HIV-1 envelope of pseudovirus 3415.v1.c1 (HIV-1)
[15] = molecular target: HIV-1 envelope of pseudovirus 6244_13_85_4576 (HIV-1)
[16] = molecular target: HIV-1 envelope of pseudovirus 6952.v1.c20 (HIV-1)
[17] = molecular target: HIV-1 envelope of pseudovirus BJOX010000.06.2 (HIV-1)
[18] = molecular target: HIV-1 envelope of pseudovirus CNE19 (HIV-1)
[19] = molecular target: HIV-1 envelope of pseudovirus CNE20 (HIV-1)
[20] = molecular target: HIV-1 envelope of pseudovirus Ce2060_G9 (HIV-1)
[21] = molecular target: HIV-1 envelope of pseudovirus R2184.c04 (HIV-1)
[22] = molecular target: HIV-1 envelope of pseudovirus X2088_c9 (HIV-1)
[23] = molecular target: HIV-1 envelope of pseudovirus X2131_C1_85 (HIV-1)
[24] = molecular target: HIV-1 envelope of pseudovirus ZM109F.PB4 (HIV-1)
[25] = molecular target: HIV-1 envelope spike of pseudovirus YU-2 (HIV-1) (UniProt P35961)
Sequence of HIV-1 envelope spike of pseudovirus YU-2 (HIV-1) (P35961 32-843): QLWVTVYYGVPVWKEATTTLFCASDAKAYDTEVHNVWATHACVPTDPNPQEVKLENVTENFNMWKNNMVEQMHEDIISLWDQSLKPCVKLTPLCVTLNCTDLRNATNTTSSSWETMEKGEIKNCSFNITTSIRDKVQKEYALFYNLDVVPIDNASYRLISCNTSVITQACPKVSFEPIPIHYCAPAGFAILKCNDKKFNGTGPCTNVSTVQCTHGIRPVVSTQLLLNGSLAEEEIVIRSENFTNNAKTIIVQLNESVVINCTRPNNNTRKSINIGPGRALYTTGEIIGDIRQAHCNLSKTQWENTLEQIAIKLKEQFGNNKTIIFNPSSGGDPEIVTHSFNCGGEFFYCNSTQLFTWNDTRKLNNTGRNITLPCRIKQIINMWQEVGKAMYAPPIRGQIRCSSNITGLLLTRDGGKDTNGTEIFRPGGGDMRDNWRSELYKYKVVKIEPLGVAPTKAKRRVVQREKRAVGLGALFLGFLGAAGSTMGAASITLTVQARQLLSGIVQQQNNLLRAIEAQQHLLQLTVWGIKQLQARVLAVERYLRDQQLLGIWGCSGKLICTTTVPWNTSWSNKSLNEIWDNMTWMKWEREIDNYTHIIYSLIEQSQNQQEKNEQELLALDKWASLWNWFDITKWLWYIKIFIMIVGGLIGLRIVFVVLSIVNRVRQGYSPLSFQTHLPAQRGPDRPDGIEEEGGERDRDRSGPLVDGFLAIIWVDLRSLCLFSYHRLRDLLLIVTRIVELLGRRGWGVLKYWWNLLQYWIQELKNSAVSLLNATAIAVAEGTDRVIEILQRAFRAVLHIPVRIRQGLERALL

[26] = molecular target: HIV-1 Env of pseudovirus BJOX009000.02.4 (HIV-1)
[27] = molecular target: HIV-1 envelope glycoprotein of pseudovirus 0260.v5.c36 (clade A) (HIV-1)
[28] = molecular target: HIV-1 envelope glycoprotein of pseudovirus 1054_07_TC4_1499 (clade B (T/F)) (HIV-1)
[29] = molecular target: HIV-1 envelope glycoprotein of pseudovirus 1394C9G1(Rev-) (clade C (T/F)) (HIV-1)
[30] = molecular target: HIV-1 envelope glycoprotein of pseudovirus 211-9 (clade CRF02_AG) (HIV-1)
[31] = molecular target: HIV-1 envelope glycoprotein of pseudovirus 235-47 (clade CRF02_AG) (HIV-1)
[32] = molecular target: HIV-1 envelope glycoprotein of pseudovirus 3365.v2.c2 (clade A) (HIV-1)
[33] = molecular target: HIV-1 envelope glycoprotein of pseudovirus 3817.v2.c59 (clade CD) (HIV-1)
[34] = molecular target: HIV-1 envelope glycoprotein of pseudovirus 928-28 (clade CRF02_AG) (HIV-1)
[35] = molecular target: HIV-1 envelope glycoprotein of pseudovirus A07412m1.vrv12 (clade D) (HIV-1)
[36] = molecular target: HIV-1 envelope glycoprotein of pseudovirus BJOX009000.02.4 (clade CRF01_AE) (HIV-1)
[37] = molecular target: HIV-1 envelope glycoprotein of pseudovirus CNE17 (clade BC) (HIV-1)
[38] = molecular target: HIV-1 envelope glycoprotein of pseudovirus CNE19 (clade BC) (HIV-1)
[39] = molecular target: HIV-1 envelope glycoprotein of pseudovirus Ce1086_B2 (clade C (T/F)) (HIV-1)
[40] = molecular target: HIV-1 envelope glycoprotein of pseudovirus Ce1172_H1 (clade C (T/F)) (HIV-1)
[41] = molecular target: HIV-1 envelope glycoprotein of pseudovirus PVO.4 (clade B) (HIV-1)
[42] = molecular target: HIV-1 envelope glycoprotein of pseudovirus T251-18 (clade CRF02_AG) (HIV-1)
[43] = molecular target: HIV-1 envelope glycoprotein of pseudovirus TRJO4551.58 (clade B) (HIV-1)
[44] = molecular target: HIV-1 envelope glycoprotein of pseudovirus X1193 c1 (clade G) (HIV-1)
[45] = molecular target: HIV-1 envelope glycoprotein of pseudovirus X1254_c3 (clade G) (HIV-1)
[46] = molecular target: HIV-1 envelope glycoprotein of pseudovirus YU.2 (clade B) (HIV-1) (UniProt P35961)
Sequence of HIV-1 envelope glycoprotein of pseudovirus YU.2 (clade B) (HIV-1) (P35961 32-843): as above

[47] = molecular target: HIV-1 envelope glycoprotein of pseudovirus ZM214M.PL15 (clade C) (HIV-1)

Sequence of 10-1074 (antibody) (VH): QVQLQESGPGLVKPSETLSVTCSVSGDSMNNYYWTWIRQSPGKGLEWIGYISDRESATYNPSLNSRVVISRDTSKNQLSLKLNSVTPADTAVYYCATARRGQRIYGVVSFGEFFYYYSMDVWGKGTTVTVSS
Sequence of 10-1074 (antibody) (V domain): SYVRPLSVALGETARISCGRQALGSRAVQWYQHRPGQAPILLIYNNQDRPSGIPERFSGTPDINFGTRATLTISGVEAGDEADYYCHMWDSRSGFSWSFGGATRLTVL
Sequence of 10-996 (antibody) (VH): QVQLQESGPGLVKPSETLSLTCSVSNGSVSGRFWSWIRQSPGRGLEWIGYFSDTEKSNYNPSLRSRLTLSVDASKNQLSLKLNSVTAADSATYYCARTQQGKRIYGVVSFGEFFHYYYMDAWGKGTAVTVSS
Sequence of 10-996 (antibody) (VL): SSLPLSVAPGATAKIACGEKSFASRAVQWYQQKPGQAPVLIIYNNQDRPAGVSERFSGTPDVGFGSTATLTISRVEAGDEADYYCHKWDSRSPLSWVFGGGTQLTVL

10-996 (antibody)
IC80 (TZM-bl neutralization) [1]: > 50 µg/mL | IC80 (TZM-bl neutralization) [2]: > 50 µg/mL | IC80 (TZM-bl neutralization) [3]: 0.079 µg/mL | IC80 (TZM-bl neutralization) [4]: 1.21 µg/mL | IC80 (TZM-bl neutralization) [5]: 0.215 µg/mL | IC80 (TZM-bl neutralization) [6]: > 50 µg/mL | IC80 (TZM-bl neutralization) [7]: 0.204 µg/mL | IC80 (TZM-bl neutralization) [8]: 0.018 µg/mL | IC80 (TZM-bl neutralization) [9]: > 50 µg/mL | IC80 (TZM-bl neutralization) [10]: > 50 µg/mL | IC80 (TZM-bl neutralization) [11]: 0.005 µg/mL | IC80 (TZM-bl neutralization) [12]: 3.25 µg/mL | IC50 (TZM-bl neutralization) [13]: 0.061 µg/mL | IC50 (TZM-bl neutralization) [14]: 35.9 µg/mL | IC50 (TZM-bl neutralization) [15]: 0.353 µg/mL | IC50 (TZM-bl neutralization) [16]: 0.044 µg/mL | IC50 (TZM-bl neutralization) [17]: > 50 µg/mL | IC50 (TZM-bl neutralization) [18]: 3.45 µg/mL | IC50 (TZM-bl neutralization) [19]: < 0.001 µg/mL | IC50 (TZM-bl neutralization) [20]: > 50 µg/mL | IC50 (TZM-bl neutralization) [21]: > 50 µg/mL | IC50 (TZM-bl neutralization) [22]: 0.002 µg/mL | IC50 (TZM-bl neutralization) [23]: 0.019 µg/mL | IC50 (TZM-bl neutralization) [24]: > 50 µg/mL | IC50 (TZM-bl neutralization assay) [25]: 0.256 µg/mL | IC80 (TZM-bl neutralization assay) [25]: 0.891 µg/mL

10-1074 (antibody)
IC80 (TZM-bl neutralization) [1]: > 50 µg/mL | IC80 (TZM-bl neutralization) [26]: > 50 µg/mL | IC80 (TZM-bl neutralization) [2]: > 50 µg/mL | IC80 (TZM-bl neutralization) [3]: 0.036 µg/mL | IC80 (TZM-bl neutralization) [4]: 0.696 µg/mL | IC80 (TZM-bl neutralization) [5]: 0.166 µg/mL | IC80 (TZM-bl neutralization) [6]: > 50 µg/mL | IC80 (TZM-bl neutralization) [7]: 0.261 µg/mL | IC80 (TZM-bl neutralization) [8]: 0.017 µg/mL | IC80 (TZM-bl neutralization) [9]: > 50 µg/mL | IC80 (TZM-bl neutralization) [10]: > 50 µg/mL | IC80 (TZM-bl neutralization) [11]: 0.005 µg/mL | IC80 (TZM-bl neutralization) [12]: 2.37 µg/mL | IC50 in the TZM-bl neutralization assay [27]: 0.16 µg/mL | IC50 in the TZM-bl neutralization assay [28]: 0.563 µg/mL | IC50 in the TZM-bl neutralization assay [29]: 0.191 µg/mL | IC50 in the TZM-bl neutralization assay [30]: 0.425 µg/mL | IC50 in the TZM-bl neutralization assay [31]: 0.163 µg/mL | IC50 in the TZM-bl neutralization assay [32]: 0.45 µg/mL | IC50 in the TZM-bl neutralization assay [33]: 14.9 µg/mL | IC50 in the TZM-bl neutralization assay [34]: 4.7 µg/mL | IC50 in the TZM-bl neutralization assay [35]: 0.048 µg/mL | IC50 in the TZM-bl neutralization assay [36]: > 50 µg/mL | IC50 in the TZM-bl neutralization assay [37]: 13.3 µg/mL | IC50 in the TZM-bl neutralization assay [38]: 50 µg/mL | IC50 in the TZM-bl neutralization assay [39]: > 50 µg/mL | IC50 in the TZM-bl neutralization assay [40]: 0.166 µg/mL | IC50 in the TZM-bl neutralization assay [41]: 0.36 µg/mL | IC50 in the TZM-bl neutralization assay [42]: 7.39 µg/mL | IC50 in the TZM-bl neutralization assay [43]: 0.634 µg/mL | IC50 in the TZM-bl neutralization assay [44]: 0.475 µg/mL | IC50 in the TZM-bl neutralization assay [45]: 0.297 µg/mL | IC50 in the TZM-bl neutralization assay [46]: 0.398 µg/mL | IC50 in the TZM-bl neutralization assay [47]: 2.37 µg/mL | IC50 (TZM-bl neutralization) [13]: 0.03 µg/mL | IC50 (TZM-bl neutralization) [14]: > 50 µg/mL | IC50 (TZM-bl neutralization) [15]: 0.202 µg/mL | IC50 (TZM-bl neutralization) [16]: 0.037 µg/mL | IC50 (TZM-bl neutralization) [17]: > 50 µg/mL | IC50 (TZM-bl neutralization) [18]: 50 µg/mL | IC50 (TZM-bl neutralization) [19]: < 0.001 µg/mL | IC50 (TZM-bl neutralization) [20]: > 50 µg/mL | IC50 (TZM-bl neutralization) [21]: > 50 µg/mL | IC50 (TZM-bl neutralization) [22]: 0.003 µg/mL | IC50 (TZM-bl neutralization) [23]: 0.016 µg/mL | IC50 (TZM-bl neutralization) [24]: > 50 µg/mL | IC50 (TZM-bl neutralization assay) [25]: 0.143 µg/mL | IC80 (TZM-bl neutralization assay) [25]: 0.398 µg/mL

PGT121 (antibody)
IC80 (TZM-bl neutralization) [1]: > 50 µg/mL | IC80 (TZM-bl neutralization) [26]: 37.3 µg/mL | IC80 (TZM-bl neutralization) [2]: > 50 µg/mL | IC80 (TZM-bl neutralization) [3]: 0.051 µg/mL | IC80 (TZM-bl neutralization) [4]: 0.492 µg/mL | IC80 (TZM-bl neutralization) [5]: 0.131 µg/mL | IC80 (TZM-bl neutralization) [6]: > 50 µg/mL | IC80 (TZM-bl neutralization) [7]: 0.156 µg/mL | IC80 (TZM-bl neutralization) [9]: > 50 µg/mL | IC80 (TZM-bl neutralization) [10]: > 50 µg/mL | IC80 (TZM-bl neutralization) [12]: 3.15 µg/mL | IC50 in the TZM-bl neutralization assay [27]: 0.152 µg/mL | IC50 in the TZM-bl neutralization assay [28]: 0.696 µg/mL | IC50 in the TZM-bl neutralization assay [29]: 3.37 µg/mL | IC50 in the TZM-bl neutralization assay [30]: 8.84 µg/mL | IC50 in the TZM-bl neutralization assay [31]: 1.68 µg/mL | IC50 in the TZM-bl neutralization assay [32]: 7.35 µg/mL | IC50 in the TZM-bl neutralization assay [33]: > 50 µg/mL | IC50 in the TZM-bl neutralization assay [34]: > 50 µg/mL | IC50 in the TZM-bl neutralization assay [35]: 0.406 µg/mL | IC50 in the TZM-bl neutralization assay [36]: 37.3 µg/mL | IC50 in the TZM-bl neutralization assay [37]: > 50 µg/mL | IC50 in the TZM-bl neutralization assay [38]: 0.189 µg/mL | IC50 in the TZM-bl neutralization assay [39]: 0.006 µg/mL | IC50 in the TZM-bl neutralization assay [40]: 0.088 µg/mL | IC50 in the TZM-bl neutralization assay [41]: 0.945 µg/mL | IC50 in the TZM-bl neutralization assay [42]: > 50 µg/mL | IC50 in the TZM-bl neutralization assay [43]: 35.3 µg/mL | IC50 in the TZM-bl neutralization assay [44]: 0.202 µg/mL | IC50 in the TZM-bl neutralization assay [45]: 0.199 µg/mL | IC50 in the TZM-bl neutralization assay [46]: 0.356 µg/mL | IC50 in the TZM-bl neutralization assay [47]: 3.15 µg/mL | IC50 (TZM-bl neutralization) [14]: > 50 µg/mL | IC50 (TZM-bl neutralization) [15]: 0.249 µg/mL | IC50 (TZM-bl neutralization) [16]: 0.085 µg/mL | IC50 (TZM-bl neutralization) [17]: > 50 µg/mL | IC50 (TZM-bl neutralization) [19]: 0.002 µg/mL | IC50 (TZM-bl neutralization) [20]: > 50 µg/mL | IC50 (TZM-bl neutralization) [21]: > 50 µg/mL | IC50 (TZM-bl neutralization) [24]: 7.89 µg/mL | IC50 (TZM-bl neutralization assay) [25]: 0.098 µg/mL | IC80 (TZM-bl neutralization assay) [25]: 0.356 µg/mL
